Measured values published in patent US20170165335A1 (IMMATICS BIOTECHNOLOGIES, published 2017).

What was measured:
[1] = target: T1, peptide-receptive MHC class I molecule (HLA-A*02:01 with beta-2-microglobulin) of the UV-ligand exchange assay (human); test: UV-ligand exchange + anti-b2m ELISA; peptide exchange yield grade (++ = 20%-49%)
Text: (§1) Candidate peptides for T cell based therapies according to the present invention were further tested for their MHC binding capacity (affinity). The individual peptide-MHC complexes were produced by UV-ligand exchange, where a UV-sensitive peptide is cleaved upon UV-irradiation, and exchanged with the peptide of interest as analyzed. Only peptide candidates that can effectively bind and stabilize the peptide-receptive MHC molecules prevent dissociation of the MHC complexes. To determine the yield of the exchange reaction, an ELISA was performed based on the detection of the light chain (β2m) of stabilized MHC complexes. The assay was performed as generally described in Rodenko et al. (Rodenko et al., 2006).
(§2) 96 well MAXISorp plates (NUNC) were coated over night with 2 ug/ml streptavidin in PBS at room temperature, washed 4× and blocked for 1 h at 37° C. in 2% BSA containing blocking buffer. Refolded HLA-A*02:01/MLA-001 monomers served as standards, covering the range of 15-500 ng/ml. Peptide-MHC monomers of the UV-exchange reaction were diluted 100 fold in blocking buffer. Samples were incubated for 1 h at 37° C., washed four times, incubated with 2 ug/ml HRP conjugated anti-β2m for 1 h at 37° C., washed again and detected with TMB solution that is stopped with […]. Absorption was measured at 450 nm. Candidate peptides that show a high exchange yield (preferably higher than 50%, most preferred higher than 75%) are generally preferred for a generation and production of antibodies or fragments thereof, and/or T cell receptors or fragments thereof, as they show sufficient avidity to the MHC molecules and prevent dissociation of the MHC complexes.

[2] = target: T1, peptide-receptive MHC class I molecule …; test: UV-ligand exchange + anti-b2m ELISA; peptide exchange yield grade (++++ = >=75%)
Text: as §1, §2

[3] = target: T1, peptide-receptive MHC class I molecule …; test: UV-ligand exchange + anti-b2m ELISA; peptide exchange yield grade (+++ = 50%-75%)
Text: as §1, §2

[4] = target: T1, peptide-receptive MHC class I molecule …; test: UV-ligand exchange + anti-b2m ELISA; peptide exchange yield grade (+ = <20%)
Text: as §1, §2

| Binder | peptide exchange yield [1] | also measured |
| --- | --- | --- |
| YLEEDVYQL (synthetic peptide) | 20 to 49% |  |
| FLAQQESEI (synthetic peptide) | 20 to 49% |  |
| SLAAAAGKQEL (synthetic peptide) | 20 to 49% |  |
| IVDDLTINL (synthetic peptide) | 20 to 49% |  |
| MLMPVHFLL (synthetic peptide) |  | peptide exchange yield [2]: ≥ 75% |
| SLKEEVGEEAIV (synthetic peptide) | 20 to 49% |  |
| FLYKIIDEL (synthetic peptide) |  | peptide exchange yield [3]: 50 to 75% |
| GLLKKINSV (synthetic peptide) | 20 to 49% |  |
| GLLEELVTV (synthetic peptide) | 20 to 49% |  |
| RLAGDGVGAV (synthetic peptide) | 20 to 49% |  |
| HLMDQPLSV (synthetic peptide) | 20 to 49% |  |
| FILDSAETTTL (synthetic peptide) | 20 to 49% |  |
| TLLSNLEEA (synthetic peptide) | 20 to 49% |  |
| ALTQTGGPHV (synthetic peptide) | 20 to 49% |  |
| FVSEIVDTV (synthetic peptide) |  | peptide exchange yield [3]: 50 to 75% |
| ALLTFMEQV (synthetic peptide) |  | peptide exchange yield [3]: 50 to 75% |
| ALMLQGVDL (synthetic peptide) | 20 to 49% |  |
| KMFFLIDKV (synthetic peptide) |  | peptide exchange yield [3]: 50 to 75% |
| VVDEGPTGV (synthetic peptide) | 20 to 49% |  |
| SSFGGLGGGSV (synthetic peptide) |  | peptide exchange yield [4]: < 20% |
| GLLDYATGAIGSV (synthetic peptide) |  | peptide exchange yield [3]: 50 to 75% |

| Binder | peptide exchange yield [1] | also measured |
| --- | --- | --- |
| NLVEKTPALV (synthetic peptide) |  | peptide exchange yield [3]: 50 to 75% |
| FLQEYLDAI (synthetic peptide) |  | peptide exchange yield [3]: 50 to 75% |
| KMDASLGNLFA (synthetic peptide) |  | peptide exchange yield [2]: ≥ 75% |
| VLAKPGVISV (synthetic peptide) | 20 to 49% |  |
| SLKEEVGEEAI (synthetic peptide) | 20 to 49% |  |
| TFAPVNVTTEVKSV (synthetic peptide) | 20 to 49% |  |
| YLDAMMNEA (synthetic peptide) | 20 to 49% |  |
| TLDGAAVNQV (synthetic peptide) | 20 to 49% |  |
| FLKSGDAAIV (synthetic peptide) | 20 to 49% |  |
| LLAGQTYHV (synthetic peptide) | 20 to 49% |  |
| SLQEEHVAVA (synthetic peptide) | 20 to 49% |  |
| VMDSGDGVTHTV (synthetic peptide) | 20 to 49% |  |
| SLAAAAGKQELA (synthetic peptide) |  | peptide exchange yield [4]: < 20% |
| SLANNVTSV (synthetic peptide) | 20 to 49% |  |
| APVNVTTEVKSV (synthetic peptide) | 20 to 49% |  |
| FLVSNMLLAEA (synthetic peptide) |  | peptide exchange yield [3]: 50 to 75% |
| RLDQRVPQI (synthetic peptide) | 20 to 49% |  |
| VLLDKIKNLQV (synthetic peptide) | 20 to 49% |  |
| VLISLKQAPLV (synthetic peptide) | 20 to 49% |  |
| KLVDKSTEL (synthetic peptide) | 20 to 49% |  |
| SLSAFTLFL (synthetic peptide) | 20 to 49% |  |

| Binder | peptide exchange yield [1] | also measured |
| --- | --- | --- |
| NLKGTFATL (synthetic peptide) |  | peptide exchange yield [4]: < 20% |
| YLQGQRLDNVV (synthetic peptide) | 20 to 49% |  |
| ALAAILTRL (synthetic peptide) |  | peptide exchange yield [3]: 50 to 75% |
| SLLDDELMSL (synthetic peptide) | 20 to 49% |  |
| AQQESEIAGI (synthetic peptide) | 20 to 49% |  |
| YLYDSETKNA (synthetic peptide) | 20 to 49% |  |
| RMVEEIGVEL (synthetic peptide) | 20 to 49% |  |
| KLFNLSKEDDV (synthetic peptide) | 20 to 49% |  |
| LLVDDSFLHTV (synthetic peptide) |  | peptide exchange yield [3]: 50 to 75% |
| YLQGQRLDNV (synthetic peptide) | 20 to 49% |  |
| VLLSEIEVA (synthetic peptide) | 20 to 49% |  |
| GLAAFKAFL (synthetic peptide) |  | peptide exchange yield [3]: 50 to 75% |
| FLFDGSANLV (synthetic peptide) | 20 to 49% |  |
| SVDVSPPKV (synthetic peptide) | 20 to 49% |  |
| FLGKVVIDV (synthetic peptide) |  | peptide exchange yield [2]: ≥ 75% |
| FLVDGSSAL (synthetic peptide) | 20 to 49% |  |
| ALLSGLREA (synthetic peptide) |  | peptide exchange yield [3]: 50 to 75% |
| SLDSRLELA (synthetic peptide) | 20 to 49% |  |
| FLLDGSEGV (synthetic peptide) |  | peptide exchange yield [3]: 50 to 75% |
